The text below walks through data of patent publication US20150260731A1 (ACUMEN PHARMACEUTICALS, published 2015).

A word on the EC50 (read off the curve): it is the concentration giving half of the maximal effect. Low readings indicate greater potency, high ones weaker potency.

In this experiment the target is T1, amyloid β-derived diffusible ligands (ADDLs), oligomers of Aβ1-42.
T1 construct: number of chains not fixed; also called Aβ oligomers; Aβ1-42 oligomers
In words: sandwich ELISA, 6E10 as capture and as detection antibody, Aβ oligomers titrated (log RFU axis).

B1: 6E10 (antibody, V domains shown)
VH: EVQLQQSGAELVKPGASVKLCTASGFNIKDTYIHWVKQRPEQGLEWIGRFDPVNVNTRYDSRFRGKATITSDASSNTAYLHLNSLTSEDTAVYYCSRSYYNGRRRFTYWGQGTLVTVSA
VL: DIVMTQSPSSLTVTAGEKVALTCKASQSLLSSGNQKNYLTWYQQKPGQPPKLLIYWASIRESGVPDRFTGSGSGTFFTLTISSVQAEDLAVYYCQNDYNYPFTFGSGTKLEIK
As for B1, the “EC50 (read off the curve)” value is approximately 5 nM.
